# Measured values as given in patent publication CN107540747A.
# B1: 抗人DLL4单克隆抗体6F12 (antibody, mouse IgG2b, V domains shown)
# VH: EVHVKQSGPELVKPGASVKMSCKASGYTFTSYLLHWVKQKPGQGLEWIGYIIPYNDGTRYNEKFKGKATLTSDKSSNTAYMELSSLTSEDSAVYYCAREGTGTGAFDYWGQGTSLTVSS
# VL: DIVLTQSPAIMSASPGEKVTMTCRASSSVNYMYWYQQKPGSSPRLLIYDTSNLASGVPVRFSGSGSGTSYSLTISRMEAEDAATYYCQQWSSYPYTFGGGTKLEIK
# Target: 人DLL4分子 (full-length human DLL4 on the cell surface) (human) (UniProt Q9NR61)
# Experiment: indirect immunofluorescence, flow cytometry on CHO/DLL4 cells
# UniProt Q9NR61, sequence (Q9NR61 27-685): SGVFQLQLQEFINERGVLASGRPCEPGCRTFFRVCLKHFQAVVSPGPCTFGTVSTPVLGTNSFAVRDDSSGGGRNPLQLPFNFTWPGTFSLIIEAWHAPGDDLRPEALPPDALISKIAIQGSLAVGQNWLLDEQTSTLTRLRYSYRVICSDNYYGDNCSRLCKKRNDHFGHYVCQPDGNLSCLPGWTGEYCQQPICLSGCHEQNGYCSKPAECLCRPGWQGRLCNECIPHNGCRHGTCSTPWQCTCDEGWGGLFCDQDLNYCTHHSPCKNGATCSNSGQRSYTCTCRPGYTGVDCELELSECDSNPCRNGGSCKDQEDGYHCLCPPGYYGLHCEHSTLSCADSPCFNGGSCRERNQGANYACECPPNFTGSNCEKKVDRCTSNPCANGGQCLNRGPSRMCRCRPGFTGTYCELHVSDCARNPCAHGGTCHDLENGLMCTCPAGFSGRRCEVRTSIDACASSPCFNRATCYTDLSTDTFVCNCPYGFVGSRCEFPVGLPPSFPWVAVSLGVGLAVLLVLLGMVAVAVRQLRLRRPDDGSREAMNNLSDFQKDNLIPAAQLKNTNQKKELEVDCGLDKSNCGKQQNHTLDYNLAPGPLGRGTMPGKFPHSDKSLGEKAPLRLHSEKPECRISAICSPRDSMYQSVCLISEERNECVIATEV
binder,measurement,value
B1,效价 (titer (1:x dilution)),> 10000
